Earlier results as cited in paper PMC4114557.
Read-outs that look alike come from different tables or passages of the source.

How the values were obtained:
[1] = target: Colicin E3 R-domain (Escherichia coli) (UniProt P00646)
[2] = target: Colicin E9 R-domain (Escherichia coli) (UniProt P09883)
BtuB (Escherichia coli) [3] = target: BtuB (Escherichia coli) (UniProt P06129)
BtuB (Escherichia coli) [4] = target: BtuB (Escherichia coli) (UniProt P06129); remark: listed apart in the source
OmpF (Escherichia coli) [5] = target: OmpF (Escherichia coli) (UniProt P02931)
OmpF (Escherichia coli) [6] = target: OmpF (Escherichia coli) (UniProt P02931); remark: listed apart in the source
BtuB (Escherichia coli) [7] = target: BtuB (Escherichia coli) (UniProt P06129); remark: listed apart in the source
OmpF (Escherichia coli) [8] = target: OmpF (Escherichia coli) (UniProt P02931); remark: listed apart in the source

Sequence of UniProt P02931 (P02931 23-362): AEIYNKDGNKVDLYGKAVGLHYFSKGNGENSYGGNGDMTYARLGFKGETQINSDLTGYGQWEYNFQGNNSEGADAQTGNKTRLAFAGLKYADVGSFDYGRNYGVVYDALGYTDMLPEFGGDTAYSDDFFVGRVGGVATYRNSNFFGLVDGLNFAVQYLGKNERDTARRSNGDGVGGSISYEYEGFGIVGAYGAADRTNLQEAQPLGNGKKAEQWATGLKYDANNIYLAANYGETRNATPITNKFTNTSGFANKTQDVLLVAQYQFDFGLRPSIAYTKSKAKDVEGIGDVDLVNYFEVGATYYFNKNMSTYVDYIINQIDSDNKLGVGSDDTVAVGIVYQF

## BtuB (from UniProt P06129)
[1]
  Kd: 1 nM
[2]
  Kd: 1 nM

## Colicin E2 R-domain (from UniProt P04419)
BtuB (Escherichia coli) [3]
  Kd: 1 nM

## Colicin E3 R-domain (from UniProt P00646)
BtuB (Escherichia coli) [4]
  Kd: 1 nM

## Colicin E9 OBS1 (from UniProt P09883)
OmpF (Escherichia coli) [5]
  Kd: 2000 nM

## Colicin E9 OBS2 (from UniProt P09883)
OmpF (Escherichia coli) [6]
  Kd: 24000 nM

## Colicin E9 R-domain (from UniProt P09883)
BtuB (Escherichia coli) [7]
  Kd: 1 nM

## Colicin N T-domain (from UniProt P08083)
OmpF (Escherichia coli) [8]
  Kd: 3000 nM
